Biological target: the molecule itself
Assay: SDS-PAGE

B1: radixin (natural protein, UniProt P26043 1-583, looked up)
chain: MPKPINVRVTTMDAELEFAIQPNTTGKQLFDQVVKTVGLREVWFFGLQYVDSKGYSTWLKLNKKVTQQDVKKENPLQFKFRAKFFPEDVSEELIQEITQRLFFLQVKEAILNDEIYCPPETAVLLASYAVQAKYGDYNKEIHKPGYLANDRLLPQRVLEQHKLTKEQWEERIQNWHEEHRGMLREDSMMEYLKIAQDLEMYGVNYFEIKNKKGTELWLGVDALGLNIYEHDDKLTPKIGFPWSEIRNISFNDKKFVIKPIDKKAPDFVFYAPRLRINKRILALCMGNHELYMRRRKPDTIEVQQMKAQAREEKHQKQLERAQLENEKKKREIAEKEKERIEREKEELMERLRQIEEQTVKAQKELEEQTRKALELEQERQRAKEEAERLDRERRAAEEAKSAIAKQAADQMKNQEQLAAELAEFTAKIALLEEAKKKKEEEATEWQHKAFAAQEDLEKTKEELKTVMSAPPPPPPPPVIPPTENEHDEQDENSAEASAELSSEGVMNHRSEEERVTETQKNERVKKQLQALSSELAQARDETKKTQNDVLHAENVKAGRDKYKTLRQIRQGNTKQRIDEFEAM
stoichiometry N: 2
